Data published in article PMC4432619, “The structure of FMNL2–Cdc42 yields insights into the mechanism of lamellipodia and filopodia formation” (Nature Communications, 2015).

B1: Cdc42 (1–179) (domain or fragment)
chain: not shown
notes: Loaded with the non-hydrolysable GTP analogue GppNHp and Mg2+ in all rows written here; also called Cdc42·GppNHp; active Cdc42; source: E. coli, GST fusion, purified; nucleotide exchanged for GppNHp
B2: Full-length, recombinant FMNL1 protein (natural protein, human, UniProt O95466 1-1100, looked up)
chain: MGNAAGSAEQPAGPAAPPPKQPAPPKQPMPAAGELEERFNRALNCMNLPPDKVQLLSQYDNEKKWELICDQERFQVKNPPAAYIQKLKSYVDTGGVSRKVAADWMSNLGFKRRVQESTQVLRELETSLRTNHIGWVQEFLNEENRGLDVLLEYLAFAQCSVTYDMESTDNGASNSEKNKPLEQSVEDLSKGPPSSVPKSRHLTIKLTPAHSRKALRNSRIVSQKDDVHVCIMCLRAIMNYQSGFSLVMNHPACVNEIALSLNNKNPRTKALVLELLAAVCLVRGGHDIILAAFDNFKEVCGEQHRFEKLMEYFRNEDSNIDFMVACMQFINIVVHSVENMNFRVFLQYEFTHLGLDLYLERLRLTESDKLQVQIQAYLDNIFDVGALLEDTETKNAVLEHMEELQEQVALLTERLRDAENESMAKIAELEKQLSQARKELETLRERFSESTAMGPSRRPPEPEKAPPAAPTRPSALELKVEELEEKGLIRILRGPGDAVSIEILPVAVATPSGGDAPTPGVPTGSPSPDLAPAAEPAPGAAPPPPPPLPGLPSPQEAPPSAPPQAPPLPGSPEPPPAPPLPGDLPPPPPPPPPPPGTDGPVPPPPPPPPPPPGGPPDALGRRDSELGPGVKAKKPIQTKFRMPLLNWVALKPSQITGTVFTELNDEKVLQELDMSDFEEQFKTKSQGPSLDLSALKSKAAQKAPSKATLIEANRAKNLAITLRKGNLGAERICQAIEAYDLQALGLDFLELLMRFLPTEYERSLITRFEREQRPMEELSEEDRFMLCFSRIPRLPERMTTLTFLGNFPDTAQLLMPQLNAIIAASMSIKSSDKLRQILEIVLAFGNYMNSSKRGAAYGFRLQSLDALLEMKSTDRKQTLLHYLVKVIAEKYPQLTGFHSDLHFLDKAGSVSLDSVLADVRSLQRGLELTQREFVRQDDCMVLKEFLRANSPTMDKLLADSKTAQEAFESVVEYFGENPKTTSPGLFFSLFSRFIKAYKKAEQEVEQWKKEAAAQEAGADTPGKGEPPAPKSPPKARRPQMDLISELKRRQQKEPLIYESDRDGAIEDIITVIKTVPFTARTGKRTSRLLCEASLGEEMPL
notes: also called full-length FMNL1; source: expressed from insect cells
B3: FMNL1NCC (1–458, Δ172–198) (domain or fragment, human, UniProt O95466 1-458, looked up)
chain: MGNAAGSAEQPAGPAAPPPKQPAPPKQPMPAAGELEERFNRALNCMNLPPDKVQLLSQYDNEKKWELICDQERFQVKNPPAAYIQKLKSYVDTGGVSRKVAADWMSNLGFKRRVQESTQVLRELETSLRTNHIGWVQEFLNEENRGLDVLLEYLAFAQCSVTYDMESTDNGSRHLTIKLTPAHSRKALRNSRIVSQKDDVHVCIMCLRAIMNYQSGFSLVMNHPACVNEIALSLNNKNPRTKALVLELLAAVCLVRGGHDIILAAFDNFKEVCGEQHRFEKLMEYFRNEDSNIDFMVACMQFINIVVHSVENMNFRVFLQYEFTHLGLDLYLERLRLTESDKLQVQIQAYLDNIFDVGALLEDTETKNAVLEHMEELQEQVALLTERLRDAENESMAKIAELEKQLSQARKELETLRERFSESTAMGPSRR
notes: also called FMNL1NCC(Δ172–198); FMNL1 (1–458, Δ172–198); source: E. coli, purified (GSH Sepharose, TEV cleavage, gel filtration); not shown: GST, N-terminal, cleaved

Tests used:
[1] = biological target: myrFMNL2N (myristoylated FMNL2N, residues 2–379) (human, UniProt Q96PY5 2-379, N-terminal myristoylation (myrFMNL2N)); assay: ITC; Cdc42·GppNHp titrated to myrFMNL2N at liposomes; 25 °C; details: both partners purified
[2] = biological target: T1, FMNL2N(Δloop) (residues 1–379, Δaa 144–218) (human, UniProt Q96PY5 1-379, Δaa 144–218); assay: ITC; GppNHp-loaded GTPase at 500 μM injected from the syringe into 50 μM FMNL in the cell; 20 mM Tris/HCl pH 8, 150 mM NaCl, 5 mM MgCl2, 1 mM DTE, 298 K; MicroCal iTC200; details: both partners purified
T1 construct: source: E. coli, purified (GSH Sepharose, TEV cleavage, gel filtration); not shown: GST, N-terminal, cleaved

[3] = biological target: B3; assay: crystal structure; complexes formed by equimolar mixing of the FMNL fragment with GppNHp-loaded Cdc42 (1–179) in high salt buffer and overnight dialysis at 277 K into 20 mM Tris/HCl pH 8.0, 150 mM NaCl, 5 mM MgCl2, 1 mM DTE; hanging drop vapour diffusion at 293 K; details: both partners purified
[4] = biological target: the molecule itself; assay: SEC; size exclusion chromatography of full-length recombinant FMNL1 from insect cells; data not shown
[5] = biological target: the molecule itself; assay: crystal structure; complexes formed by equimolar mixing of the FMNL fragment with GppNHp-loaded Cdc42 (1–179) in high salt buffer and overnight dialysis at 277 K into 20 mM Tris/HCl pH 8.0, 150 mM NaCl, 5 mM MgCl2, 1 mM DTE; hanging drop vapour diffusion at 293 K

T1 sequence (Q96PY5 other isoform, or with tags, fused parts or gaps Δaa 144–218 | Δaa 144–218 | mutant): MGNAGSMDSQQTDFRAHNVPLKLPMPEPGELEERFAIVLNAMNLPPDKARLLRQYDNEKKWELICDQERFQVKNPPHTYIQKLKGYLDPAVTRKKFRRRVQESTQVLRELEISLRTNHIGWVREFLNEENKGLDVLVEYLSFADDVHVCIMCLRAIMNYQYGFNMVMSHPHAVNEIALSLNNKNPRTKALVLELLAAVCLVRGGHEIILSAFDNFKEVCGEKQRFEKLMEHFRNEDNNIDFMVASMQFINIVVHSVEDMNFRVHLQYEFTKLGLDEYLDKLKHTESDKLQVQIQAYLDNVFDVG
Chain of myrFMNL2N (myristoylated FMNL2N, residues 2–379) (Q96PY5 2-379): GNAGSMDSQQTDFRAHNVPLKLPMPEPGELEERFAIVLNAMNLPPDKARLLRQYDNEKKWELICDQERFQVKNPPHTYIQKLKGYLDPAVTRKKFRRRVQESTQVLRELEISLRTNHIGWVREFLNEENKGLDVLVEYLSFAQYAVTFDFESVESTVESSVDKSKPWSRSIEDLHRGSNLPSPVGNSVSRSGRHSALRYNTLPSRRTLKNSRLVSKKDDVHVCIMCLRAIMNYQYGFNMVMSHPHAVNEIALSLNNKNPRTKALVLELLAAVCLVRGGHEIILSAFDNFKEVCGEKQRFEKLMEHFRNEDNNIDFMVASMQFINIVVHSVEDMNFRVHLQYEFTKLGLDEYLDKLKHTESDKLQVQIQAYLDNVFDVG

Binder: B1
- Kd [1]: 1790 ± 760 nM
- dH [1]: -2.77 ± 0.29 kcal/mol
- stoichiometry N [1]: 0.93
- Kd [2]: 1340 ± 170 nM
- dH [2]: -2.39 ± 0.04 kcal/mol
- stoichiometry N [2]: 1
- binding result [3]: binds

Binder: B2
- stoichiometry N [4]: 2

Binder: B3
- binding result [5]: binds
